Data from publication PMC5762634, “Domain swapping and SMYD1 interactions with the PWWP domain of human hepatoma-derived growth factor” (Scientific Reports, 2018).

Target: the molecule itself
Assay: SEC; Superdex-200; apo PWWP domain at higher initial concentration (proportion of dimer rises with concentration); 20 mM Tris-HCl, 5 mM EDTA, 5 mM beta-ME, pH 7.5

B1: human HDGF PWWP domain (residues 1-100) (domain or fragment)
chain: not shown
notes: human hepatoma-derived growth factor (HDGF), N-terminal PWWP domain, the first 100 amino acids; Subcloned into the NdeI and EcoRI sites of pET28a; also called apo PWWP domain; HDGF PWWP_(1-100) domain; source: E. coli BL21-Codon Plus-RIL, purified (Ni2+-NTA, Hitrap Q, Superdex-200)
**Q.** For B1, which “stoichiometry N” value is on record?
**A.** 2
